The record followed here is paper PMC10393190 (Genes & Development, 2022).

Like-named read-outs stand apart in the source and are kept apart here.

Series [1] has as its target T1, Mer2 (Saccharomyces cerevisiae, UniProt P21651 1-314).
T1 sequence: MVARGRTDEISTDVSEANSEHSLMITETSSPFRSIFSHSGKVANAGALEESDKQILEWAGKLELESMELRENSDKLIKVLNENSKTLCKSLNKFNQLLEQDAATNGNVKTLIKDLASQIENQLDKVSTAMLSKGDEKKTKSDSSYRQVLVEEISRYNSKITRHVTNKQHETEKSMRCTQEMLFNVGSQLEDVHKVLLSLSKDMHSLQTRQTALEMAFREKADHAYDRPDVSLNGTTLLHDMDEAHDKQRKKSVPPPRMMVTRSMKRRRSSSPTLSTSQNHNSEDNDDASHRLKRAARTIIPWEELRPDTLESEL
The series can be described thus: EMSA. Background: In EMSA bound probe runs differently from free probe, usually more slowly.

The target in a further series is T2, IHO1 coiled-coil domain (Mus musculus, UniProt Q6PDM4 109-267).
T2 sequence: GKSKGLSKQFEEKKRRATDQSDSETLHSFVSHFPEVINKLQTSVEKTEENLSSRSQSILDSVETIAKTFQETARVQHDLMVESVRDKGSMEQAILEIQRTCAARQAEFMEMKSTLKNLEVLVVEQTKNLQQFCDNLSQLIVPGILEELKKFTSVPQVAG
The series can be described thus: competition.

The target of another series is T3, Rec15 coiled-coil domain (Schizosaccharomyces pombe, UniProt Q09094 1-160).
T3 sequence: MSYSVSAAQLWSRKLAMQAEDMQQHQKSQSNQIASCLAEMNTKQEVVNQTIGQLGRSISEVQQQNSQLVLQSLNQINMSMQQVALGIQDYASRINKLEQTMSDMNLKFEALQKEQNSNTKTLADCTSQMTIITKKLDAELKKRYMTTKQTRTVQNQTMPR
The series can be described thus: competition.

In series [2] the target is T4, Rec114;Mei4 (Saccharomyces cerevisiae;Saccharomyces …, UniProt P32841;P29467 1-428;1-408, |).
T4 sequence 1: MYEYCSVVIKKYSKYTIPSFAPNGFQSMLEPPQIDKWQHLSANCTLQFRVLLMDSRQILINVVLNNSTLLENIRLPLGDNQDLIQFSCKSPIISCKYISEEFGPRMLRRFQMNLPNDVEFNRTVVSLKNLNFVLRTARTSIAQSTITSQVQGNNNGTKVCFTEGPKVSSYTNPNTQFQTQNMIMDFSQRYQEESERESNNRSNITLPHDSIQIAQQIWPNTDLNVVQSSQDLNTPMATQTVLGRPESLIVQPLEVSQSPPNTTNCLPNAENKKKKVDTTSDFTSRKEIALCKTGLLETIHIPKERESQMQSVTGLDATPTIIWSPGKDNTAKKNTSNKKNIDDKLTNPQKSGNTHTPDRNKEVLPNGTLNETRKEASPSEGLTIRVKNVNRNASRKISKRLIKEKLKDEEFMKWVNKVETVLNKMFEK
T4 sequence 2: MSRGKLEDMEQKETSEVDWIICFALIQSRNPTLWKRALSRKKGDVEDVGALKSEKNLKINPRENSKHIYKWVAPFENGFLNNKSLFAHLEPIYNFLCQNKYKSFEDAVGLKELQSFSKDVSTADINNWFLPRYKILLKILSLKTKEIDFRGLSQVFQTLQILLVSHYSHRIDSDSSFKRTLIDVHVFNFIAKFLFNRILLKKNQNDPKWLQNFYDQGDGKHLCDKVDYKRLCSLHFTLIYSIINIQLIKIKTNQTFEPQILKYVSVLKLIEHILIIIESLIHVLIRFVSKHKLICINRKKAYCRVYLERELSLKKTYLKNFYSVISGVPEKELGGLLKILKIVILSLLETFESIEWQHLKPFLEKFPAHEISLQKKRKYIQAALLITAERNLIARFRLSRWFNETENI
The series can be described thus: competition.

For series [3], the target named is T5, REC114;MEI4 (Mus musculus;Mus musculus, UniProt Q9CWH4;Q8BRM6 1-259;1-389, |).
T5 sequence 1: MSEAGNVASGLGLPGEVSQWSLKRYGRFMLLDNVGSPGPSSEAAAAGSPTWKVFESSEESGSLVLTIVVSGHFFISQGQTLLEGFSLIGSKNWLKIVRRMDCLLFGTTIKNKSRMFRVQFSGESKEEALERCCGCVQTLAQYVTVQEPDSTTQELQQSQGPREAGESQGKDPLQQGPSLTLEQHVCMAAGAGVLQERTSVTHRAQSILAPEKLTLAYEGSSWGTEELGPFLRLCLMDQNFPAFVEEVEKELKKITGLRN
T5 sequence 2: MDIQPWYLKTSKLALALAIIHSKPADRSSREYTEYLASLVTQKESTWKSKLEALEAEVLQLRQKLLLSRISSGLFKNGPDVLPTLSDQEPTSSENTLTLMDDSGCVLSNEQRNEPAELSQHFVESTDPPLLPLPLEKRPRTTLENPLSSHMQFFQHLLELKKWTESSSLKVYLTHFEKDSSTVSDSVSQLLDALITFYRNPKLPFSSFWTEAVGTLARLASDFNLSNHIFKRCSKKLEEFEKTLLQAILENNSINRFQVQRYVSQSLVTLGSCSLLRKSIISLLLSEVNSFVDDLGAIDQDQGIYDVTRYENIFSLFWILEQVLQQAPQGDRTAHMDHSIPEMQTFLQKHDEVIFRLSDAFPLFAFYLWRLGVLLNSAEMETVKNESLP
The series can be described thus: competition.

In series [4] the target is T1, Mer2. The series is described as follows: EMSA. The source holds these as a separate data set.
The target of series [5] is T1, Mer2. The series is described as follows: EMSA. The source holds these as a separate data set.
The target of series [6] is T1, Mer2. The series is described as follows: EMSA. This is another data set of the same source.
For series [7], the target named is T1, Mer2. The series is described as follows: EMSA. This is another data set of the same source.

B1: HJ40 (cb095/cb096/cb097/cb098) (structured_DNA)
DNA 1: CTAGTATAGAGCCGGCGCGCCATGTCTAGATAGCGTTAGGTCTGCCGAATAGTACTACTCGGATCCCGAGCGAACCACGC
DNA 2: GCGTGGTTCGCTCGGGATCCGAGTAGTACTATTCGGCAGAGGATTCGAATAGGCCTAATCGAATTCCGCCATCGATGCAC
DNA 3: GTGCATCGATGGCGGAATTCGATTAGGCCTATTCGAATCCAGACGCGAGTAGATCTTCACGGTACCCGCGGTTACCCGTG
DNA 4: CACGGGTAACCGCGGGTACCGTGAAGATCTACTCGCGTCTCCTAACGCTATCTAGACATGGCGCGCCGGCTCTATACTAG
As to B1, in the series with Mer2 [1], the “apparent K (half saturation)” value is 9.2 ± 1 nM. Further, the binding result with IHO1 coiled-coil domain and in the series with Rec15 coiled-coil domain was “binds” each time. In addition, the binding signal in the series with Rec114;Mei4 [2] is ~10 fold better competitor than dsDNA; with REC114;MEI4 [3] it was > 20 fold higher affinity than dsDNA.

B2: dsDNA 80 bp (cb095/cb100) (dsDNA)
DNA 1: B1 DNA 1
DNA 2: GCGTGGTTCGCTCGGGATCCGAGTAGTACTATTCGGCAGACCTAACGCTATCTAGACATGGCGCGCCGGCTCTATACTAG
For B2, the “apparent K (half saturation)” value with Mer2 [4] amounted to 36.8 ± 13.3 nM.

B3: 3' flaps (cb095/cb098/cb122) (structured_DNA)
DNA 1: B1 DNA 1
DNA 2: B1 DNA 4
DNA 3: AGACGCGAGTAGATCTTCACGGTACCCGCGGTTACCCGTG
As for B3, the “apparent K (half saturation)” value in the series with Mer2 [5] came to 34.4 ± 25.2 nM.

B4: Fork (cb095/cb098/cb122/cb120) (structured_DNA)
DNA 1: B1 DNA 1
DNA 2: B1 DNA 4
DNA 3: B3 DNA 3
DNA 4: GCGTGGTTCGCTCGGGATCCGAGTAGTACTATTCGGCAGA
As for B4, the “apparent K (half saturation)” value with Mer2 [6] was determined as 24.4 ± 5.5 nM.

B5: HJ20 (cb922/cb923/cb924/cb925) (structured_DNA)
DNA 1: CAACGTGGGCAAAGATGTCCTAGCAATGTAATCGTCTATG
DNA 2: ATTCTACCAGTGCCAGTGATGGACATCTTTGCCCACGTTG
DNA 3: ATCCTCTAGACAGCTCCATGATCACTGGCACTGGTAGAAT
DNA 4: CATAGACGATTACATTGCTACATGGAGCTGTCTAGAGGAT
Consider B5, for which, in the series with Mer2 [7], the “apparent K (half saturation)” value was 23.9 ± 2.9 nM.
